Source: the supplement of paper PMC5998384

Columns and labels:
[1] = test system: HeLa Kyoto; experiment: solubility change mitosis vs G1/S (difference of NP-40 vs SDS log2 ratios) (log2 ratio difference); higher = more soluble in mitosis
[2] = test system: HeLa Kyoto; experiment: solubility in G1/S (NP-40 vs SDS abundance) (log2 ratio); higher = more soluble; details: cell cycle stage: G1/S
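Throughout, for solubility change mitosis vs G1/S (difference of NP-40 vs SDS log2 ratios): synchronized HeLa Kyoto cells (double thymidine block for G1/S, nocodazole release for mitosis), protein amounts in NP-40 versus SDS lysates quantified by mass spectrometry, three biological replicates.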
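Throughout, for solubility in G1/S (NP-40 vs SDS abundance): HeLa Kyoto cells arrested at G1/S by double thymidine block, proteins quantified by TMT10plex mass spectrometry in mild NP-40 versus SDS extracts, three biological replicates.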

Sequence: MAAVEAAAEPVTVVAAVGPKAKDEEEEEEEPLPPCEAVRWAPVGAVAEARPGATAFLEEATAEEPGAAPGSPPDSPGRTLRRLRAERRRLDSALLALSSHFAQVQFRLRQVVRGAPAEQQRLLRELEDFAFRGCPHVLGYEGPGDPASDEGDGLPGDRPWLRGEDQSEQEKQERLETQREKQKELILQLKTQLDDLETFAYQEGSYDSLPQSVVLERQRVIIDELIKKLDMNLNEDISSLSTEELRQRVDAAVAQIVNPARVKEQLVEQLKTQIRDLEMFINFIQDEVGSPLQTGGGHCECKAGGKTGNGCSRTGSSRTPPGNSKTKAEDVKKVRETGLHLMRRALAVLQIFAVSQFGCATGQIPPTLWQRVQADRDYSPLLKRLEVSVDRVKQLALRQQPHDHVITSANLQDLSLGGKDELTMAVRKELTVAVRDLLAHGLYASSPGMSLVMAPIACLLPAFSSAPEAMHPWELFVKYYHAKNGRAYVESPARKLSQSFALPVTGGTVVTPKQSLLTAIHMVLTEHDPFKRSADSELKALVCMALNEQRLVSWVNLICKSGSLIEPHYQPWSYMAHTGFESALNLLSRLSSLKFSLPVDLAVRQLKNIKDAF [RUNDC1]
- solubility change mitosis (log2) [1]: -0.215
- solubility in G1/S (log2) [2]: -0.124

Sequence: MDILKSEILRKRQLVEDRNLLVENKKYFKRSELAKKEEEAYFERCGYKIQPKEEDQKPLTSSNPVLELELAEEKLPMTLSRQEVIRRLRERGEPIRLFGETDYDAFQRLRKIEILTPEVNKGLRNDLKAALDKIDQQYLNEIVGGQEPGEEDTQNDLKVHEENTTIEELEALGESLGKGDDHKDMDIITKFLKFLLGVWAKELNAREDYVKRSVQGKLNSATQKQTESYLRPLFRKLRKRNLPADIKESITDIIKFMLQREYVKANDAYLQMAIGNAPWPIGVTMVGIHARTGREKIFSKHVAHVLNDETQRKYIQGLKRLMTICQKHFPTDPSKCVEYNAL [PRPF18]
- solubility change mitosis (log2) [1]: 0.09
- solubility in G1/S (log2) [2]: 0.178

Sequence: MEKRLQEAQLYKEEGNQRYREGKYRDAVSRYHRALLQLRGLDPSLPSPLPNLGPQGPALTPEQENILHTTQTDCYNNLAACLLQMEPVNYERVREYSQKVLERQPDNAKALYRAGVAFFHLQDYDQARHYLLAAVNRQPKDANVRRYLQLTQSELSSYHRKEKQLYLGMFG [TTC9C]
- solubility change mitosis (log2) [1]: 0.459
- solubility in G1/S (log2) [2]: 0.247

Sequence: MNQPQRMAPVGTDKELSDLLDFSMMFPLPVTNGKGRPASLAGAQFGGSGLEDRPSSGSWGSGDQSSSSFDPSRTFSEGTHFTESHSSLSSSTFLGPGLGGKSGERGAYASFGRDAGVGGLTQAGFLSGELALNSPGPLSPSGMKGTSQYYPSYSGSSRRRAADGSLDTQPKKVRKVPPGLPSSVYPPSSGEDYGRDATAYPSAKTPSSTYPAPFYVADGSLHPSAELWSPPGQAGFGPMLGGGSSPLPLPPGSGPVGSSGSSSTFGGLHQHERMGYQLHGAEVNGGLPSASSFSSAPGATYGGVSSHTPPVSGADSLLGSRGTTAGSSGDALGKALASIYSPDHSSNNFSSSPSTPVGSPQGLAGTSQWPRAGAPGALSPSYDGGLHGLQSKIEDHLDEAIHVLRSHAVGTAGDMHTLLPGHGALASGFTGPMSLGGRHAGLVGGSHPEDGLAGSTSLMHNHAALPSQPGTLPDLSRPPDSYSGLGRAGATAAASEIKREEKEDEENTSAADHSEEEKKELKAPRARTSPDEDEDDLLPPEQKAEREKERRVANNARERLRVRDINEAFKELGRMCQLHLNSEKPQTKLLILHQAVSVILNLEQQVRERNLNPKAACLKRREEEKVSGVVGDPQMVLSAPHPGLSEAHNPAGHM [TCF3]
- solubility change mitosis (log2) [1]: -0.0342
- solubility in G1/S (log2) [2]: 0.291

Sequence: MAALTPRKRKQDSLKCDSLLHFTENLFPSPNKKHCFYQNSDKNEENLHCSQQEHFVLSALKTTEINRLPSANQGSPFKSALSTVSFYNQNKWYLNPLERKLIKESRSTCLKTNDEDKSFPIVTEKMQGKPVCSKKNNKKPQKSLTAKYQPKYRHIKPVSRNSRNSKQNRVIYKPIVEKENNCHSAENNSNAPRVLSQKIKPQVTLQGGAAFFVRKKSSLRKSSLENEPSLGRTQKSKSEVIEDSDVETVSEKKTFATRQVPKCLVLEEKLKIGLLSASSKNKEKLIKDSSDDRVSSKEHKVDKNEAFSSEDSLGENKTISPKSTVYPIFSASSVNSKRSLGEEQFSVGSVNFMKQTNIQKNTNTRDTSKKTKDQLIIDAGQKHFGATVCKSCGMIYTASNPEDEMQHVQHHHRFLEGIKYVGWKKERVVAEFWDGKIVLVLPHDPSFAIKKVEDVQELVDNELGFQQVVPKCPNKIKTFLFISDEKRVVGCLIAEPIKQAFRVLSEPIGPESPSSTECPRAWQCSDVPEPAVCGISRIWVFRLKRRKRIARRLVDTLRNCFMFGCFLSTDEIAFSDPTPDGKLFATKYCNTPNFLVYNFNS [ESCO2]
- solubility change mitosis (log2) [1]: 0.997
- solubility in G1/S (log2) [2]: -0.994

Sequence: MWVNPEEVLLANALWITERANPYFILQRRKGHAGDGGGGGGLAGLLVGTLDVVLDSSARVAPYRILYQTPDSLVYWTIACGGSRKEITEHWEWLEQNLLQTLSIFENENDITTFVRGKIQGIIAEYNKINDVKEDDDTEKFKEAIVKFHRLFGMPEEEKLVNYYSCSYWKGKVPRQGWMYLSINHLCFYSFLMGREAKLVIRWVDITQLEKNATLLLPDVIKVSTRSSEHFFSVFLNINETFKLMEQLANIAMRQLLDNEGFEQDRSLPKLKRKSPKKVSALKRDLDARAKSERYRALFRLPKDEKLDGHTDCTLWTPFNKMHILGQMFVSTNYICFTSKEENLCSLIIPLREVTIVEKADSSSVLPSPLSISTRNRMTFLFANLKDRDFLVQRISDFLQQTTSKIYSDKEFAGSYNSSDDEVYSRPSSLVSSSPQRSTSSDADGERQFNLNGNSVPTATQTLMTMYRRRSPEEFNPKLAKEFLKEQAWKIHFAEYGQGICMYRTEKTRELVLKGIPESMRGELWLLLSGAINEKATHPGYYEDLVEKSMGKYNLATEEIERDLHRSLPEHPAFQNEMGIAALRRVLTAYAFRNPNIGYCQAMNIVTSVLLLYAKEEEAFWLLVALCERMLPDYYNTRVVGALVDQGVFEELARDYVPQLYDCMQDLGVISTISLSWFLTLFLSVMPFESAVVVVDCFFYEGIKVIFQLALAVLDANVDKLLNCKDDGEAMTVLGRYLDSVTNKDSTLPPIPHLHSLLSDDVEPYPEVDIFRLIRTSYEKFGTIRADLIEQMRFKQRLKVIQTLEDTTKRNVVRTIVTETSFTIDELEELYALFKAEHLTSCYWGGSSNALDRHDPSLPYLEQYRIDFEQFKGMFALLFPWACGTHSDVLASRLFQLLDENGDSLINFREFVSGLSAACHGDLTEKLKLLYKMHVLPEPSSDQDEPDSAFEATQYFFEDITPECTHVVGLDSRSKQGADDGFVTVSLKPDKGKRANSQENRNYLRLWTPENKSKSKNAKDLPKLNQGQFIELCKTMYNMFSEDPNEQELYHATAAVTSLLLEIGEVGKLFVAQPAKEGGSGGSGPSCHQGIPGVLFPKKGPGQPYVVESVEPLPASLAPDSEEHSLGGQMEDIKLEDSSPRDNGACSSMLISDDDTKDDSSMSSYSVLSAGSHEEDKLHCEDIGEDTVLVRSGQGTAALPRSTSLDRDWAITFEQFLASLLTEPALVKYFDKPVCMMARITSAKNIRMMGKPLTSASDYEISAMSG [TBC1D9]
- solubility change mitosis (log2) [1]: 0.38
- solubility in G1/S (log2) [2]: -0.4

Sequence: MALDPADQHLRHVEKDVLIPKIMREKAKERCSEQVQDFTKCCKNSGVLMVVKCRKENSALKECLTAYYNDPAFYEECKMEYLKEREEFRKTGIPTKKRLQKLPTSM [CMC1]
- solubility change mitosis (log2) [1]: 0.26
- solubility in G1/S (log2) [2]: -0.253

Sequence: MFLQYYLNEQGDRVYTLKKFDPMGQQTCSAHPARFSPDDKYSRHRITIKKRFKVLMTQQPRPVL [NOP10]
- solubility change mitosis (log2) [1]: 0.778
- solubility in G1/S (log2) [2]: -1.06

Sequence: MKRVNSCVKSDEHVLEELETEGERQLKSLLQHQLDTSVSIEECMSKKESFAPGTMYKPFGKEAAGTMTLSQFQTLHEKDQETASLRELGLNETEILIWKSHVSGEKKTKLRATPEAIQNRLQDIEERISERQRILCLPQRFAKSKQLTRREMEIEKSLFQGADRHSFLKALYYQDEPQKKNKGDPMNNLESFYQEMIMKKRLEEFQLMRGEPFASHSLVSATSVGDSGTAESPSLLQDKGKQAAQGKGPSLHVANVIDFSPEQCWTGPKKLTQPIEFVPEDEIQRNRLSEEEIRKIPMFSSYNPGEPNKVLYLKNLSPRVTERDLVSLFARFQEKKGPPIQFRMMTGRMRGQAFITFPNKEIAWQALHLVNGYKLHGKILVIEFGKNKKQRSNLQATSLISCATGSTTEISGS [RBM41]
- solubility change mitosis (log2) [1]: -0.0432
- solubility in G1/S (log2) [2]: -0.192
